The record followed here is patent publication US20030194402A1.

The target in test [1] is T1, human lymphotoxin (TNFβ) (human) (UniProt P01374).
T1 sequence (looked up): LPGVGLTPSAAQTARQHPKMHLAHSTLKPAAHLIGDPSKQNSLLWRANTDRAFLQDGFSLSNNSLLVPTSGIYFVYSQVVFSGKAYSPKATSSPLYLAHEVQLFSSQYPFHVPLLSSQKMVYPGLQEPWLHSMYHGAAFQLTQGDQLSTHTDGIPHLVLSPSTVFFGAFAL
As to the kind of experiment: cell-based or functional assay.

Test [2] has as its target human tumor necrosis factor-α (TNFα) (human) (UniProt P01375). The test is described as follows: cell-based or functional assay.

Sequence of human tumor necrosis factor-α (TNFα) (human) (P01375 77-233): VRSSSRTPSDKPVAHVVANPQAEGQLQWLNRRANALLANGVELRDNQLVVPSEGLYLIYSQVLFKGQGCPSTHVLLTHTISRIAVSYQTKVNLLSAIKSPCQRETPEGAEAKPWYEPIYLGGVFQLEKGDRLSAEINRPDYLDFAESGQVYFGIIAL

Regarding “p55-sf2 (p55 TNF receptor/IgG1 heavy chain single fusion with truncated light chain JCK) (from UniProt P19438 3-159) (Fc fusion)”, in test [1], the amount needed for the same degree of TNFβ inhibition, against p75P-sf2 was 3 fold.

B1: chimeric mouse/human IgG1 anti-platelet mAb (7E3) (antibody, INN chains, looked up, V domains shown)
VH: EVQLQQSGTVLARPGASVKMSCEASGYTFTNYWMHWVKQRPGQGLEWIGAIYPGNSDTSYIQKFKGKAKLTAVTSTTSVYMELSSLTNEDSAVYYCTLYDGYYVFAYWGQGTLVTVSA
VL: EIVLTQSPVTLSVTPGDSVSLSCRASRDISNNLHWFQQTSHESPRLLIKYASQSMSGIPSRFSGSGSGTDFTLSINSVETEDFGMYFCQQTNSWPYTFGGGTKLEIK
modifications: IgG1
Turning to B1, in test [2], the IL-6 in supernatant of FS-4 fibroblasts after 18 h; TNF 0.3 ng/ml, antibody 4 µg/ml was found to be 1.6 ng/mL; the IL-6 in supernatant of FS-4 fibroblasts after 18 h; TNF 1.5 ng/ml, antibody 4 µg/ml came out at 1.96 ng/mL; the IL-6 in supernatant of FS-4 fibroblasts after 18 h; TNF 7.5 ng/ml, antibody 4 µg/ml turned out to be 2.16 ng/mL.
